Columns and labels:
[1] = molecular target: T1, Mycobacterium smegmatis topoisomerase I (msTopoI) (Mycobacterium smegmatis, UniProt A0R5D9 A0R5D9:2-936); assay: ligation of SEQ:16 oligo to substrate; binding in 1 mM EDTA, 300 mM NaCl, 37 C, then 5 mM MgCl2; no numeric result given
T1 sequence: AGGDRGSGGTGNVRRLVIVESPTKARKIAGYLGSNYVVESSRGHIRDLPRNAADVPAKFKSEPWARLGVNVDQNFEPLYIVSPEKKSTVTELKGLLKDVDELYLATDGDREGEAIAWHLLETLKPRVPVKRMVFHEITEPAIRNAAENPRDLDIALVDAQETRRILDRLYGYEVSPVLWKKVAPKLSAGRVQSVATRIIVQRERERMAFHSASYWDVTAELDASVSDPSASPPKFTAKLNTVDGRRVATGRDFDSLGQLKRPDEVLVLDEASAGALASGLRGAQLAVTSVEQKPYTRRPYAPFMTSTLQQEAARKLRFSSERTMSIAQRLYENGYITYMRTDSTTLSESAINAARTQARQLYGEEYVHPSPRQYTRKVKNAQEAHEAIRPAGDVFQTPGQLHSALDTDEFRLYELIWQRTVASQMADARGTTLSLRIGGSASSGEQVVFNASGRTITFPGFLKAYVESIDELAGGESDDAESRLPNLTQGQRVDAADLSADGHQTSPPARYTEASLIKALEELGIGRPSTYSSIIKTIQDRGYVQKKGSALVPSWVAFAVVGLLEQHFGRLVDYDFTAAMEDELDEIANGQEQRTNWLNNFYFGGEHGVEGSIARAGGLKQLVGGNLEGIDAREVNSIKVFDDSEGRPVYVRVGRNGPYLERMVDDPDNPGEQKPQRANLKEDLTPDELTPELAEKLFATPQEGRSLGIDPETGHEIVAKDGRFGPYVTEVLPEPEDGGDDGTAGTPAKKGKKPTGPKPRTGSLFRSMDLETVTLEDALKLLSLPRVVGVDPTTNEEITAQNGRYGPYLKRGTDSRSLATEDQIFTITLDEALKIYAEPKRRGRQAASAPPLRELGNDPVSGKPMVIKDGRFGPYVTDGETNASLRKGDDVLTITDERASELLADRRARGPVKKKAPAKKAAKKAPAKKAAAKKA
Experimental: Prepare a solution containing msTopol as well as 10 mM Tris-HCl (pH 7.5), 1 mM EDTA, and 300 mM NaCl. Add 5 μL to each printed area (see previous section). Incubate for 1 h at 37° C. in humidity chamber. Wash 3×5 minutes in wash buffer 4. To each printed are, add 5 μL of ligation mixture: 2 μM oligonucleotide ([Btn]CAGTGAGCGTCTGGCTGAAGCTTCCGCT; SEQ ID No: 16); 300 mM NaCl; 1 mM Tris-HCl (pH 7.5); 5 mM MgCl₂. Incubate at 37° C. for 1 h in humidity chamber. Wash for 1 min in wash buffer 2, 1 min in wash buffer 3, and 1 min in 96% ethanol. Let the slide air-dry.

HIV integrase = HIV integrase (Human immunodeficiency virus, UniProt P04585 P04585:1148-1435); assay: integration of LTR into dsDNA SEQ:12/SEQ:13; MES pH 6.2, 200 mM KCl, 10 mM MnCl2, 10 mM DTT, 37 C; settings: tags: His-tag (pTrcHis), E. coli BL21

B1: msTopoI substrate (ssDNA)
DNA: CAGTGAGCGAGCTTCCGCTTGACATCCCAATAGTTTCTCTTC
modifications: 3' amino-C6, immobilised on CodeLink slide
[1]
  binding result: binds

B2: HIV LTR substrate (dsDNA)
DNA 1: TTTAGTCAGTGTGGAAAATCTCTAGCAGT
DNA 2: ACTGCTAGAGATTTTCCACACTGACTAAA
modifications: 5' amino-C6-T on both strands, SEQ:6 strand immobilised
HIV integrase
  binding result: binds
